Source: article PMC7716773, “Known Evolutionary Paths Are Accessible to Engineered ß-Lactamases Having Altered Protein Motions at the Timescale of Catalytic Turnover” (Frontiers in Molecular Biosciences, 2020)

Tested on: CO/N=C(\C(=O)N[C@@H]1C(=O)N2C(C(=O)O)=C(COC(C)=O)CS[C@H]12)c1csc(N)n1
Experiment: purified protein
Conditions: 27°C, cefotaxime 12.5-200 μM, enzyme 5–70 nM

Q: Which results are given for “TEM-1 ß-lactamase (TEM-1) (Escherichia coli)”?
A: Km: 1,500 ± 900 μM; kcat: 1 ± 0.5 s⁻¹; kcat/Km: 680 ± 530 M⁻¹ s⁻¹
